These results are taken from doi:10.1101/2025.02.16.638571 (bioRxiv, 2025).

For experiment [1], the target named is T1, NiVM G head domain protein (residues 176-602) (Nipah virus, Malaysia strain (NiVM), UniProt Q9IH62). As to the kind of experiment: BLI.
For experiment [2], the target named is LayV G head domain (residues 176-625) (Langya virus, GenBank UUV47206.1, UniProt A0AAX3C924). As to the kind of experiment: ELISA.
The target in experiment [3] is MojV G head domain (residues 176-625) (Mojiang virus, GenBank YP_009094095.1, UniProt W8TIR7). As to the kind of experiment: ELISA. A general note: ELISA stands for enzyme-linked immunosorbent assay.
Experiment [4] deals with NiVM G ectodomain (residues 96-602) (Nipah virus, Malaysia strain, …, UniProt Q9IH62). As to the kind of experiment: ELISA.
Experiment [5] concerns the target T1, NiVM G head domain protein (residues …). As to the kind of experiment: cryo-EM structure.
In experiment [6] the target is deglycosylated NiVM G head domain without the His-tag (residues 176-602) (Nipah virus, Malaysia strain, …, UniProt Q9IH62). As to the kind of experiment: crystal structure.
Experiment [7] deals with T2, NiVM G head domain protein (residues 176-602) (Nipah virus, Malaysia strain (NiVM), UniProt Q9IH62 176-602).
T2 sequence: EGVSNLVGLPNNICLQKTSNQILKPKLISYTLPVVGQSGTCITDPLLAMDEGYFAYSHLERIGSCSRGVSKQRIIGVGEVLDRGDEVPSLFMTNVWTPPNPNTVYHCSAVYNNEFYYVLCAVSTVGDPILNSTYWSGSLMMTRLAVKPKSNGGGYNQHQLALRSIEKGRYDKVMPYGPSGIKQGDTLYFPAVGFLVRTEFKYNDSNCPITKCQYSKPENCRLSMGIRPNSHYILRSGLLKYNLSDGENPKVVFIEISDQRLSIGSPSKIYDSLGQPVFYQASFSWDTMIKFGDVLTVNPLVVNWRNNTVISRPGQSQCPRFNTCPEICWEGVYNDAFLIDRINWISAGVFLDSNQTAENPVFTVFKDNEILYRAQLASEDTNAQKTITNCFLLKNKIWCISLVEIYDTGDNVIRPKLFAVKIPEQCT
Description: BLI. A general note: BLI is a label-free optical method that tracks binding on a fibre tip over time.

B1: mAb S2B10 (antibody, V domains shown)
VH: QMQLQESGPGLVKPSQSLSLTCTVTGYSITSDYAWNWIRQFPRNKLEWMGFITYSGSTSYNPSLKSRISLTRDTSKNQFFLQLSSVTTEDTATYYCARSGANWDWFAYWGQGTLVTVSA
VL: DIQMTQSPASLAVSLGQRATISCRASESVDNYGNSFMHWYQQKPGQPPKLLIYRASKLESGIPARFSGSGSRTDFTLTINPVEADDVATYHCQQSNEDPWTFGGGTKLEIK
Consider B1, for which the binding result was “binds” in experiment [1], “no binding (tested: 1 μg/mL)” in experiment [2], “no binding (tested: 1 μg/mL)” in experiment [3] and “binds” in experiment [4].

B2: S2B10 Fab (Fab, V domains shown)
VH: QMQLQESGPGLVKPSQSLSLTCTVTGYSITSDYAWNWIRQFPRNKLEWMGFITYSGSTSYNPSLKSRISLTRDTSKNQFFLQLSSVTTEDTATYYCARSGANWDWFAYWGQGTLVTVSA
VL: DIQMTQSPASLAVSLGQRATISCRASESVDNYGNSFMHWYQQKPGQPPKLLIYRASKLESGIPARFSGSGSRTDFTLTINPVEADDVATYHCQQSNEDPWTFGGGTKLEIK
For the molecule B2, in experiment [5], the binding result is on record as “binds”.

B3: LN1F9 Fab (Fab, V domains shown)
VH: EVKLVESGGGLVKPGGSLKLSCAASGFSFRNYAMSWVRQSPEKRLEWVAEVSSGGGYTYYPDTVTGRFTISRDNAKNILYLEMSSLRSEDTAMYYCTRDPDSSGYLAWFAYWGQGTLVTVSA
VL: DILLTQSPASLSASVGETVTITCRASENINSYLAWYQQKQGKSPQLLVYNAKTLAEGVPSRFSGSGSDTQFSLKINTLQPEDFGTYYCQHHSGTPYTFGGGTKLEIK
As to B3, the binding result in experiment [6] is “binds”.

B4: mAb LN1F9 (antibody, V domains shown)
VH: EVKLVESGGGLVKPGGSLKLSCAASGFSFRNYAMSWVRQSPEKRLEWVAEVSSGGGYTYYPDTVTGRFTISRDNAKNILYLEMSSLRSEDTAMYYCTRDPDSSGYLAWFAYWGQGTLVTVSA
VL: DILLTQSPASLSASVGETVTITCRASENINSYLAWYQQKQGKSPQLLVYNAKTLAEGVPSRFSGSGSDTQFSLKINTLQPEDFGTYYCQHHSGTPYTFGGGTKLEIK
For B4, the binding result in experiment [1] was “binds”; in experiment [2] it was “no binding (tested: 1 μg/mL)”; in experiment [3] it was “no binding (tested: 1 μg/mL)”; in experiment [4] it was “binds”.

B5: mAb S1E2 (antibody, V domains shown)
VH: QMQLQESGPGLVKPSQSLSLTCSVTGYSITSGYYWNWIRQFSGNKLEWMGYINHDGSKNYNPSLKNRISITRDTSKNQFFLKLNSVTTEDTATYYCARDYGSYYYPMDYWGQGTSVTVSS
VL: EIVLTQSPPIMSASPGEKVTITCSASSSVTFMHWFQQKPGTSPKLWIFSTSNLASGVPARFSGSGSGTSYSLTISRMEAEDAATYYCQQRSSYPFTFGSGTKLEIK
In the case of B5, the binding result in experiment [1] was “binds”; in experiment [2], “no binding (tested: 1 μg/mL)”; in experiment [3], “no binding (tested: 1 μg/mL)”; in experiment [4] it was “binds”.

B6: S1E2 Fab (Fab, V domains shown)
VH: QMQLQESGPGLVKPSQSLSLTCSVTGYSITSGYYWNWIRQFSGNKLEWMGYINHDGSKNYNPSLKNRISITRDTSKNQFFLKLNSVTTEDTATYYCARDYGSYYYPMDYWGQGTSVTVSS
VL: EIVLTQSPPIMSASPGEKVTITCSASSSVTFMHWFQQKPGTSPKLWIFSTSNLASGVPARFSGSGSGTSYSLTISRMEAEDAATYYCQQRSSYPFTFGSGTKLEIK
As to B6, the binding result in experiment [5] is “binds”.

B7: human ephrin-B2 (residues 27-167) (receptor)
chain: SIVLEPIYWNSSNSKFLPGQGLVLYPQIGDKLDIICPKVDSKTVGQYEYYKVYMVDKDQADRCTIKKENTPLLNCAKPDQDIKFTIKFQEFSPNLWGLEFQKNKDYYIISTSNGSLEGLDNQEGGVCQTRAMKILMKVGQD
Consider B7, for which, in experiment [7], the binding result was “binds”.

B8: LN3D3 Fab (Fab, V domains shown)
VH: EVKLEESGPELVKPGASVKMSCKASGYTFTNYVMHWVKQKPGQGLEWIGYVNPYNDGTQYNEKFRDKATLTSDKSSSTVYMELNSLTSEDSAVYYCTRGDYPYWVFEVWGAGTTVTVSS
VL: EIQMTQSPATLSVTPGDSVSLSCRASQSISNNLHWYQQKSHESPRLLIKYASQSISGIPSRFSGSGSGTDFTLSINNLETEDFGMYFCQHSDSWPFTFGSGTKLEIK
With B8, the binding result in experiment [5] was “binds”.

B9: mAb LN3D3 (antibody, V domains shown)
VH: EVKLEESGPELVKPGASVKMSCKASGYTFTNYVMHWVKQKPGQGLEWIGYVNPYNDGTQYNEKFRDKATLTSDKSSSTVYMELNSLTSEDSAVYYCTRGDYPYWVFEVWGAGTTVTVSS
VL: EIQMTQSPATLSVTPGDSVSLSCRASQSISNNLHWYQQKSHESPRLLIKYASQSISGIPSRFSGSGSGTDFTLSINNLETEDFGMYFCQHSDSWPFTFGSGTKLEIK
Take B9: the binding result in experiment [1] was “binds”; in experiment [2], “no binding (tested: 1 μg/mL)”; in experiment [3], “no binding (tested: 1 μg/mL)”; in experiment [4] it was “binds”.
